Results on six molecules are retold here after patent US20030143697A1.

In one experiment the target is human IL-13 (human) (UniProt P35225). Put plainly: cell-based or functional assay.
Another experiment addresses human IL-4 (human) (UniProt P05112). As to the kind of experiment: cell-based or functional assay.
For experiment [1], the target named is recombinant human IL-1 (human). Put plainly: cell-based or functional assay.
Experiment [2] concerns the target human IL-6 (human) (UniProt P05231). Put plainly: cell-based or functional assay.
For experiment [3] the target is unchanged. As to the kind of experiment: cell-based or functional assay. The source holds these as a separate data set.
The target is the same in experiment [4]. Put plainly: dissociation of 20 pM 125I-IL-6 from 500 pM mAb B-E8 after a 1000-fold excess of cold IL-6; Protein G-Sepharose precipitation.
The next experiment concerns the target T1, gp130 on PC12D cells (UniProt P40190).
T1 sequence (looked up): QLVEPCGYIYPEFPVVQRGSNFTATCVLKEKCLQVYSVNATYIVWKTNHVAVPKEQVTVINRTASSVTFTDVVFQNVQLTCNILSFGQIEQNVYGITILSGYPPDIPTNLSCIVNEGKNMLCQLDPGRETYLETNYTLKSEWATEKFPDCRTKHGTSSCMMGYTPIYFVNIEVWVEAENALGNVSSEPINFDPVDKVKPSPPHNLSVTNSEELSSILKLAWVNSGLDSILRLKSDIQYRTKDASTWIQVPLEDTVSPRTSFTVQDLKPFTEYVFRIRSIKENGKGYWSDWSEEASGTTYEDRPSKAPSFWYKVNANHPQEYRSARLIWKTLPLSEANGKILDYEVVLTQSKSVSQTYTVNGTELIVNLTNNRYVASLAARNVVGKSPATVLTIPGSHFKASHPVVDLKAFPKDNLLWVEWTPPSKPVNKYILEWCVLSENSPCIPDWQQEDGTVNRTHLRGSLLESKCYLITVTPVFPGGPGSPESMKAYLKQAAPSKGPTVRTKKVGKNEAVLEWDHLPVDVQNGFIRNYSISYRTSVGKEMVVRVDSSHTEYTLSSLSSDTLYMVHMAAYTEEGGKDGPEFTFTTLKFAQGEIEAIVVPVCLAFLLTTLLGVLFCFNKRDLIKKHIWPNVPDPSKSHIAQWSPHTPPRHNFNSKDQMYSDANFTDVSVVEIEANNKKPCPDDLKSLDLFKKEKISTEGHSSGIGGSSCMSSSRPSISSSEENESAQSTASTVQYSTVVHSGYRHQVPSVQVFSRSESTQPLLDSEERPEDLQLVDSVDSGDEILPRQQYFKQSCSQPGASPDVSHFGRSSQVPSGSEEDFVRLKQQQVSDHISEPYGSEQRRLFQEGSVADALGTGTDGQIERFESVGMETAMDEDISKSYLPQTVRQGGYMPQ
Put plainly: cell-based or functional assay.

A value given as a limit tells only on which side of the number the result lay.

Sequence of human IL-6 (human) (P05231 30-212 limits assumed): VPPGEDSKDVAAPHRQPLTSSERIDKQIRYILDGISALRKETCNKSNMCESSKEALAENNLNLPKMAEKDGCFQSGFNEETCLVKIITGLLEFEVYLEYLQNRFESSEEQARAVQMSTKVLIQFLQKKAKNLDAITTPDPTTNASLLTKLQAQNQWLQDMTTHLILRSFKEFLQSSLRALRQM
Sequence of human IL-4 (human) (P05112 25-153 limits assumed): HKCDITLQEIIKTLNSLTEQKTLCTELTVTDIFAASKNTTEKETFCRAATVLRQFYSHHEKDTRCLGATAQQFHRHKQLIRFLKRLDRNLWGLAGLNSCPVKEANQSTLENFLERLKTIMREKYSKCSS
Sequence of human IL-13 (human) (P35225 35-146 limits assumed): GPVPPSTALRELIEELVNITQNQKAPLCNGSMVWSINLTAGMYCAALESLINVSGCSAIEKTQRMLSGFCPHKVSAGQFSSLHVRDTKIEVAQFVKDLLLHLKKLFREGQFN

In the experiment with human IL-13 (human), IL-13Rα1.IL-4Rα.Fc (Fc fusion) displayed a TF1 bioassay (MTS); IL-13 concentration at which growth is inhibited by 50% with 10 nM Trap of 4 to 5 nM and a TF1 bioassay (MTS); highest IL-13 concentration whose growth effect is blocked by 10 nM Trap of 2 nM. In the experiment with human IL-4 (human), the TF1 bioassay (MTS); IL-4 concentration at which growth is inhibited by 50% with 10 nM Trap lay in the range of 3 to 4 nM and the TF1 bioassay (MTS); highest IL-4 concentration whose growth effect is blocked by 10 nM Trap was 1 nM.
For “IL-1-RI.Fc (from UniProt P14778 18-336) (Fc fusion)”, in experiment [1], the IL-1-dependent production of IL-6 by MRC5 cells; highest IL-1 concentration blocked was in the range of 10 to 20 pM.
Consider “gp130-Fc•CNTFRα-Fc ligand Trap (Fc fusion)”, for which the IL-6-dependent proliferation of XG-1 cells (MTT assay) (fold molar excess over IL-6) in the experiment with human IL-6 (human) [2] was determined as 1000.
On to IL-4Rα.IL-13Rα1.Fc (Fc fusion), for which, in the experiment with human IL-13 (human), the TF1 bioassay (MTS); IL-13 concentration at which growth is inhibited by 50% with 10 nM Trap was in the range of 4 to 5 nM and the TF1 bioassay (MTS); highest IL-13 concentration whose growth effect is blocked by 10 nM Trap was 2 nM. Besides, in the experiment with human IL-4 (human), the TF1 bioassay (MTS); IL-4 concentration at which growth is inhibited by 50% with 10 nM Trap fell in the range of 3 to 4 nM and the TF1 bioassay (MTS); highest IL-4 concentration whose growth effect is blocked by 10 nM Trap is 1 nM.

B1: anti-IL-6 monoclonal neutralizing antibody B-E8 (antibody, from another filing, V domains shown)
VH: QVTLKESGPGILKPSQTLSLTCSFSGFSLSTSGMGVGWIRQPSGKGLEWLAHIWWDDDKYYNPSLKSQLTISKDTSRNQVFLKITSVDTADTATYYCARSYDDYLYYALDYWGQGTSVTVSS
VL: DIVMTQSPATLSVTPGDRVSLSCRASQSISDYLHWYQQKSHESPRLLIKSVSQSISGIPSRFSGSGSGSDFTLSINSVEPEDVGVYYCQNGHSFPLTFGAGTKLELK
B1 came in with an IL-6-dependent proliferation of XG-1 cells (MTT assay, 50 pg/ml IL-6) (fold molar excess) with human IL-6 (human) [3] of 10. In the experiment with human IL-6 (human) [4], this molecule gave a percent of the initial counts of 125I-IL-6 still bound after three days of less than 5%.

B2: Rat CNTF (ligand, UniProt P20294 1-200, looked up)
chain: MAFAEQTPLTLHRRDLCSRSIWLARKIRSDLTALMESYVKHQGLNKNINLDSVDGVPVASTDRWSEMTEAERLQENLQAYRTFQGMLTKLLEDQRVHFTPTEGDFHQAIHTLMLQVSAFAYQLEELMVLLEQKIPENEADGMPATVGDGGLFEKKLWGLKVLQELSQWTVRSIHDLRVISSHQMGISALESHYGAKDKQM
Regarding B2, in the experiment with gp130 on PC12D cells, the tyrosine phosphorylation of gp130 induced by IL-6 and sIL-6Rα in PC12D cells worked out at 8 nM; the tyrosine phosphorylation of gp130 induced by IL-6 in PC12D cells (anti-gp130 immunoprecipitation, anti-phosphotyrosine immunoblot) worked out at 2 nM.
